Measurements reported in paper PMC8516079.

Target: TGF-β receptors on MFB-F11 cells
Conditions: scale: fold less potent than HEK293T-expressed TGM1

Work on “algal-expressed TGM1 (Heligmosomoides polygyrus TGF-β mimic, mature 5-domain, FLAG-tagged) (ligand)” yielded an MFB-F11 Smad-responsive reporter cells, secreted alkaline phosphatase (405 nm), log dilutions starting at 100 ng/mL, 24 h; potency against HEK293T-expressed TGM1 of 10.
